The values below are quoted from earlier work in article PMC3902607.

As a reminder, the Kd is a measure of binding affinity in units of concentration.

For the series, the target named is RXFP2 (Homo sapiens) (UniProt Q8WXD0).
UniProt Q8WXD0, sequence (Q8WXD0 whole entry): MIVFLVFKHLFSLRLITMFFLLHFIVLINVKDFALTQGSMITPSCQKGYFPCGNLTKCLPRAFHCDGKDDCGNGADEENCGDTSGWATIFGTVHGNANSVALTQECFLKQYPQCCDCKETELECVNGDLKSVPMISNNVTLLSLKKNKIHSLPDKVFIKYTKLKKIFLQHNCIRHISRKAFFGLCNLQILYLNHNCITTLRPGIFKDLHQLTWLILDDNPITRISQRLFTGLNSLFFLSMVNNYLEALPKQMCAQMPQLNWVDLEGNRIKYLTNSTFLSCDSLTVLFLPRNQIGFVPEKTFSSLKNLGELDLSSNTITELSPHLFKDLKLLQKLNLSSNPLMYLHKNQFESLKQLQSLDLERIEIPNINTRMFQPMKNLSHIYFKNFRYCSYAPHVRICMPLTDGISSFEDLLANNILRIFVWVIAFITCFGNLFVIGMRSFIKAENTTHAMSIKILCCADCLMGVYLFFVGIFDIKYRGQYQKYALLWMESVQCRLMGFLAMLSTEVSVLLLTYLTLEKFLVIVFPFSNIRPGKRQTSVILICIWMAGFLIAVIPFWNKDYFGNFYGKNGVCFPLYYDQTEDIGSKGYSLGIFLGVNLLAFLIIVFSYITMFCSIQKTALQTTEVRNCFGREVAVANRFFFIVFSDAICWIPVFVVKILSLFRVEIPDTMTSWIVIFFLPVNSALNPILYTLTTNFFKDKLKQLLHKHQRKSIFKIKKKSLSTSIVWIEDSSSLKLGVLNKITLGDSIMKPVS

As to INSL3 (from UniProt P51460), the Kd was below 1 nM.
